The values below come from patent publication EP4663654A1 (Hangzhou Sciwind Biosciences Co., Ltd., dated 2025).

This assay addresses T1, human amylin receptor (AMY3) on CHO-K1/Ga15/AMY3 amylin receptor/CRE-luc cells (human, UniProt P30988 25-474; O60896 24-148).
T1 sequence (looked up) 1: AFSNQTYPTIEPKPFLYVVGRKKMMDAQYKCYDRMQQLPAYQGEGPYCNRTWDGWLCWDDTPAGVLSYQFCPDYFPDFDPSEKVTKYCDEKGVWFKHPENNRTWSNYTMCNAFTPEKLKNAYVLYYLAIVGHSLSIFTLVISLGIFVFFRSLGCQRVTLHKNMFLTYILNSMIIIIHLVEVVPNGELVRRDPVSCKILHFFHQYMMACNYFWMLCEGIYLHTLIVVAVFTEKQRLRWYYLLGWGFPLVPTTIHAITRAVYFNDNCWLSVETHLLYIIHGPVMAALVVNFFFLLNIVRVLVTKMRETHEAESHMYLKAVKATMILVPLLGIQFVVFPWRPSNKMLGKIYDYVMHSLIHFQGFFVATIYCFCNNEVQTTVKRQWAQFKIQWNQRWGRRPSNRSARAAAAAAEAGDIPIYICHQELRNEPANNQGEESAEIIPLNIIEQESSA
T1 sequence (looked up) 2: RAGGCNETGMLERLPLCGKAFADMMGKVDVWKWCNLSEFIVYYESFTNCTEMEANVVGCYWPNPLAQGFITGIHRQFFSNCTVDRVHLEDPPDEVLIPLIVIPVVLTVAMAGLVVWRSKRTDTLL
Description: cell-based or functional assay.

Starred links: 1 amine or outer side, 2 acyl side, 3 side chain; linkers in the order of their positions; H or OH if unused. Non-standard residues stand in square brackets, D forms with d. *: point of attachment. C20 diacid = O=C(O)CCCCCCCCCCCCCCCCCCC(=O)*; γGlu = O=C(O)[C@H](CCC(=O)[*:2])N[*:1]; Hyp = O=C(O)[C@@H]1C[C@@H](O)CN1

B1: polypeptide derivative M52 (peptide)
peptide: {C20 diacid-γGlu}-ASQLSTAATQRLADFLRHSSHNLKPILPPTNVGSNT[Hyp]-NH2
SMILES: CC[C@H](C)[C@H](NC(=O)[C@@H]1CCCN1C(=O)[C@H](CCCCN)NC(=O)[C@H](CC(C)C)NC(=O)[C@H](CC(N)=O)NC(=O)[C@H](Cc1c[nH]cn1)NC(=O)[C@H](CO)NC(=O)[C@H](CO)NC(=O)[C@H](Cc1c[nH]cn1)NC(=O)[C@H](CCCNC(=N)N)NC(=O)[C@H](CC(C)C)NC(=O)[C@H](Cc1ccccc1)NC(=O)[C@H](CC(=O)O)NC(=O)[C@H](C)NC(=O)[C@H](CC(C)C)NC(=O)[C@H](CCCNC(=N)N)NC(=O)[C@H](CCC(N)=O)NC(=O)[C@@H](NC(=O)[C@H](C)NC(=O)[C@H](C)NC(=O)[C@@H](NC(=O)[C@H](CO)NC(=O)[C@H](CC(C)C)NC(=O)[C@H](CCC(N)=O)NC(=O)[C@H](CO)NC(=O)[C@H](C)NC(=O)CC[C@H](NC(=O)CCCCCCCCCCCCCCCCCCC(=O)O)C(=O)O)[C@@H](C)O)[C@@H](C)O)C(=O)N[C@@H](CC(C)C)C(=O)N1CCC[C@H]1C(=O)N1CCC[C@H]1C(=O)N[C@H](C(=O)N[C@@H](CC(N)=O)C(=O)N[C@H](C(=O)NCC(=O)N[C@@H](CO)C(=O)N[C@@H](CC(N)=O)C(=O)N[C@H](C(=O)N1C[C@H](O)C[C@H]1C(N)=O)[C@@H](C)O)C(C)C)[C@@H](C)O
On to B1, for which the “EC50/nM, CRE-luciferase reporter in amylin receptor/CRE-luc CHO cells” value stood at 0.09 nM and the “Relative activity (the EC50 ratio of Cagrilintide to the compound)” value is 178%.
